Results: patent US20170052184A1 (published 2017)

T1: HCV bt-151-171 (Peptide 3, HCVc 151-171) (Hepatitis C virus (numbering per HCV-1), biotin (carboxy-terminal per; N-terminal per))
T1 peptide: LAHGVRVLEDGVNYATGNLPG

T2: HCV bt-141-161 (Peptide 2, HCVc 141-161) (Hepatitis C virus (numbering per HCV-1), biotin (carboxy-terminal per; N-terminal per))
T2 peptide: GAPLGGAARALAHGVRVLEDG

T3: HCV bt-134-154 (Peptide 1, HCVc 134-154) (Hepatitis C virus (numbering per HCV-1), biotin (carboxy-terminal per; N-terminal per))
T3 peptide: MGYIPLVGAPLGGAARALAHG


Tests used:
[1] = biological target: T1, HCV bt-151-171 (Peptide 3, HCVc 151-171); experiment: EIA, captured mAb + biotin peptide
[2] = biological target: T2, HCV bt-141-161 (Peptide 2, HCVc 141-161); experiment: EIA, captured mAb + biotin peptide
[3] = biological target: T3, HCV bt-134-154 (Peptide 1, HCVc 134-154); experiment: EIA, captured mAb + biotin peptide
[4] = biological target: T4, HCV Core 134-171-TT Peptide (hepatitis C virus (HCV-1 numbering) …); experiment: SPR, captured mAb, peptide analyte
T4 construct: also called ALRZ-9 peptide

| Binder | Reactivity (OD 492 nm) [1] [OD units] | Reactivity (OD 492 nm) [2] [OD units] | Reactivity (OD 492 nm) [3] [OD units] | Kd [4] [nM] | koff [4] [s⁻¹] | kon [4] [M⁻¹ s⁻¹] |
| --- | --- | --- | --- | --- | --- | --- |
| HCV 208B-1096 (antibody, V domains shown) VH: QVQLQQSGAGLAKPGASVKMSCKASGYTFTANKMHWAKQRPGQGLEWIGYIDPSSGYTEYNHKIQYKATLTADTSSSTAYMQLSTLTFEDSAVYYCTNFAYWGQGTLVTVSA VL: DIVMTQTPLTLSVTIGQPASISCKSSQSLLFTNGKTYLNWFLQRPGQSPKRLIYLLSKLDSGVPDRFSGSGSGTDFTLKISRVEAEDLGVYYCLQSTYFPLTFGAGTKLELKR | 3.56 | 0.13 |  |  |  |  |
| HCV 208B-408 (antibody, V domains shown) VH: EVKLVESGGGLVQPGGSLRLSCASSGFTFTDYYMSWVRQPPGKALEWLGFIRNKAYGYTTEFSASVNGRFTISRDDSQSVPYLQMNTLRAEDSATYYCARVLYYDYGGFAYWGQGTLVTVST VL: DIQMTQSPASLSASVGETVTITCRASGNIHTYLAWYQQKQGKSPQLLVYNANTLADGVPSRFSGSGSGTQFSLKINSLQPDDFGSYYCQHFWSAPWTFGGGTQLEIKR | 0.16 |  | 0.81 |  |  |  |
| HCV 208B-174 (antibody, V domains shown) VH: EVKLEESGGGLVQPGGSMKLSCVASGFSFSSYWMSWVRQSPEKGLDWVAEIRLRSDNYATHYAESVKGRFTISRDDSISRLYLQMNTLRAEDTGIYYCTWMTYWGQGTLVTVSA VL: QNVLTQSPAIMSASPGEKVTMSCSASSSVTYMFWYQLKPESSPRLLIYDTSNLASGVPVRFSGSGSGTSYSLTISRMEAEDAATYYCQEWSSYPLTFGAGTKLDLKR |  |  |  | 0.25 | 0.00018 | 760000 |
| HCV 208A-1064 (antibody, V domains shown) VH: EVQLQQSGPELVKPGASVKISCKTSGYTFTEYAMHWMKQSHGKSLEWIGGINPTNGDTIYNQKFKDKAKLTVDRSSSTAYMELRSLTSDDSALFYCARRELDYFASWGQGTTLTVSS VL: DIVLTQSPASLIVSLGQTATISCRASQSVSTSRFSYLHWIQQKPGQPPKLLIKYASNLESGVPVRFSGSGSGTDFTLNIHPVEEEDTATYFCQHSWEFPFTFGSGTKLKIKR | 0.12 | 3.5 | 0.1 |  |  |  |
| HCV 208A-920 (antibody, V domains shown) VH: not shown VL: DIVLTQSPASLAVSLGQRATISCRASQSVSTSRYSYMHWYQQKPGQPPKLLIKYASNLESGVPARFSGSGSGTDFTLNIHPVAEEDTAAYYCQHSWEFPFTFGSGTKLEIKR | 0.08 | 4 | 0.17 |  |  |  |
| HCV 208A-133 (antibody, V domains shown) VH: QLQQSGPVLVGPGASVMISCKTSGYTFTENAMHWVEQSHGKSLEWIGGVNPNNGDTIFNQKFKGKATLTVDKSSSTAFMEFRSLTSEESTVYYCVRRELDFFDYWGQGTSVTVSS VL: DIVLTQSPASLAVSLGQRATISCRASQSVSTSRYSYMHWYQQKPGQPPKLLIKYASNLESGVPARFSGSGSGTDFTLNIHPVAEEDTATYYCQHSWEFPFTFGSGTKLEIKR | 0.13 | 3.68 | 0.1 |  |  |  |
| HCV 208A-110 (antibody, V domains shown) VH: not shown VL: DIVLTQSPASLAVSLGQRATISCRASQSVSTSRYSYMHWYQQKPGQPPKLLIKYASNLESGVPARFSGSGSGTDFTLNIHPVAEEDTAAYYCQHSWEFPFTFGSGTKLEIKR | 0.11 | 2.88 | 0.07 |  |  |  |
| HCV 208A-293 (antibody, V domains shown) VH: EVQLQQSGPELVKPGASVKISCKASGFTFTEYAMHWMKQSHGKSLEWIGGINPTNGDAIYNQKFKDKAKLTVDRSSSTAYMELRSLTSDDSALFYCARRELDYFPSWGQGTTLTVSS VL: DIVLTQSPASLIVSLGQRATISCRASQSVSTSRFSYVHWIQQKPGQPPKLLIKYASNLESGVPVRFSGSGSGTDFILNIHPVEEEDTATYFCQHSWEFPFTFGSGTKLEIKR | 0.11 | 2.42 | 0.08 |  |  |  |
| HCV 208A-159 (antibody, V domains shown) VH: QLQQSGPAQVKPGASVMISCKTSGYTFTENAMHWVKQSHGKSLEWIGGVNPNNGDTIFNQKFKDKAALTVDKSSSTAFMELRSLTSEESTVYYCVRRELDFFDYWGQGTSVTVSS VL: DIVLTQSPASLAVSLGQRATISCRASQSVSTSRYSYVHWYQQKPGQPPKLLIKYAANLESGVPARFSGSGSGTDFTLNIHPVAEEDAAAYYCQHSWEFPFTFGSGTKLEIKR | 0.19 | 3.77 | 0.15 |  |  |  |
| HCV 208B-1094 (antibody, V domains shown) VH: EVQLQQSGPELVKPGASVKISCKTSGYTFTEYAMHWMKQSHGKSLEWIGGINPTNGDTIYNQRFKDKAKLTVDRSSSTAYMELRSLTSDDSALFYCARRELDYFASWGQGTTLTVSS VL: DIVLTQSPASLIVSLGQTATISCRASQSLSTSRFSYVHWIQQKPGQPPKLLIKYASNLESGVPVRFSGSGSGTDFTLNIHPVEEEDTATYFCQHSWEFPFTFGSGTKLKIKR | 0.13 | 3.28 | 0.12 |  |  |  |
| HCV 208A-126 (antibody, V domains shown) VH: QLQQSGPVLVKPGASVMISCKTSGYTFTENAMHWVKQSHGKSLEWIGGVNPNNGDTIFNQKFKGKATLTVDKSSNTAFTELRSLPSEESTVYYCVRRGLDFFDYWGQGTSVTVSS VL: DIVLTQSPASLAVSLGQRATISCRASQSVSTSRYSYMHWYQQKPGQPPKLLIKYASNLESGVPARFSGSGSGTDFTLNIHPVAEEDTAAYYCQHSWEFPFTFGSGTKLEIKR | 0.1 | 2.08 | 0.2 |  |  |  |
| HCV 208A-983 (antibody, V domains shown) VH: QGQMQQSGAELVKPGASVKLSCKTSGFTFSSSYFSWLKQKPGQSLEWIAWIYAGTGNTIYNQKFTDKAQLTVDTASSTAFMQLSSLTIEDSAIYYCAISGTGFTYWGQGTLVTVSA VL: DVLMTQTPLSLPVNLGDQASISCRSSQSLLHSNGNTYLEWFLQKPGQSPKLLIYNVSNRFSGVPDRFSGSGSGTDFTLKISRVEAEDLGVYYCFQGSHVPFTFGSGTKLAIKR |  |  |  | 0.46 | 4.6e-05 | 97000 |
| HCV 208B-471 (antibody, V domains shown) VH: QGQLQQSGPVLVKPGASEILYCKTSGFTFSSTYISWLKQKPGQSLEWIAWIYAGTGATNYNQKFTGKAQLTVDASSNTAYMHFSGLTPEDSAIYYCAISGAGVYWGQGTLVTVSA VL: DVVMTQTPLSLPVSLGDQASISCRSSQSLLHSNGNTYLEWYLQKPGQSPNLLIYNVSNRFSGVPDRFSGSGSGTDFALKISRVGAEDLGVYYCFQGSHVPLTFGAGTKLELKR |  |  |  | 0.25 | 5.5e-05 | 220000 |
| HCV 208A-692 (antibody, V domains shown) VH: QGQMQQSGAELAKPGASVKLSCKTSGFTFSSSYISWLKQKPGQSLEWIAWIFAGTGNTNYNQKFTDKAQLTVDTSSSTAYMQLSSLTTEDSAIYYCAISGTGFTYWGQGTLVTVSA VL: EVLMTQSPLSLPVSLGDQASISCRSSQSLEHSNGNTYLEWFLQRPGQPPKLLIYKVSSRFSGVPDRFSGSGSGTDFTLKISRVEAEDLGVYYCFQGSHVPFTFGSGTKLAIKR | 0.07 |  | 3.67 |  |  |  |
